Reference: publication PMC10164616

Target: monomeric receptor binding domain from SARS-CoV-2 Spike protein, RBD (319-541)-His6 (SARS-CoV-2) (UniProt P0DTC2)
Assay: SEC

Substance: monomeric receptor binding domain from SARS-CoV-2 Spike protein, RBD (319-541)-His6 (from UniProt P0DTC2 319-541) (domain or fragment)
- percent dimer (GF-HPLC, first week at 37 °C): 14%
- stoichiometry N: 2
